The nanobody polyreactivity screen of Harvey et al. (2022)

assay: yeast display, Sf9 membrane polyspecificity reagent, FACS + sequencing; frameworks hold sequencing errors
Method in brief: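 Polyreactivity labels are assigned by the sorting gate from which each nanobody was recovered. The gates were low and high (top ~1%), set on anti-HA fluorescence for expression and streptavidin fluorescence for reagent binding. Before sorting, galactose-induced (36–48 hours) yeast display cells were stained for 1 hour at 4 °C with 10% biotinylated, detergent-solubilized Sf9 membrane reagent.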

Sequence | polyreactivity (PSR sort gate)
QVQLVESGGGLVQAGGSLRLSCAASGRIFGLYAMGWYRQAPGKERELVASISQSGANTYYADSVKGRFTISRDNAKNTVYLQMNCQKPEDTAVSYCAAKRYDRYYYWVGYWGQGTQVIVSS | low polyreactivity
QVQLVESGGGLVQAGGSLRLSCAASGRIFGLYVLGGYRQAPGKERELVAAIDDSGGDTYDADSVKGRFTISRDNAKNTVYIQMNSLKPEDTAVYYCPADYWGYYYGGYYYLRDYWGQGTQVTVSS | high polyreactivity
QVQLVESGGGLVQAGGSLRLSCAASGRIFGPNAMGWYRQAPGKERELVAAISWSGSSTRYADSVKGRFTISRDNAKNTVYLQMNSLKPEDTAVYYCAARRQSPDRYTKYEYWGQGTQVTVSS | low polyreactivity
QVQLVESGGGLVQAGGSLRLSCAASGRIFGPNDMGWYRQAPGKDRELVAAISWSGSSTRYADSVKGRFTISRDNAKNTVYLQMNSLKPEDTAGYYCAADRYWHSVVRDEDYWGQGTQVTVSS | low polyreactivity
QVQLVESGGGLVQAGGSLRLSCAASGRIFGPNDMGWYRQAPGKERELVAAITDSGDITYYADSVKGRFTISRDIAKNSVYLQMNSLKPEDTAVYYCAADHTYENEYWGQGTQVTVSS | low polyreactivity
QVQLVESGGGLVQAGGSLRLSCAASGRIFGPYAMGWYRQAPGKERELVAAIRASSSSTYYADSVKGRFTISRDNAKNTVYVQMNSLKPEDTAVYYCAADWYYGYAWKYGYWGQGTQVTVSS | low polyreactivity
QVQLVESGGGLVQAGGSLRLSCAASGRIFGPYAMGWYRQAPGKERELVAAISGRGSSTYYADSVKGRFTLSRDNAKNTVYLQMNSLKPEDTAVYYCAKYPTYSYDYWGQGTQVTVSS | high polyreactivity
QVQLVESGGGLVQAGGSLRLSCAASGRIFGPYAMGWYRQAPGKERELVASISYSRGSTYYADSVKGRFTISRDNANNTVYLQMNSLKPEDTAVYYCAKGGYWRGYNYWGQGSQVTVSS | low polyreactivity
QVQLVESGGGLVQAGGSLRLSCAASGRIFGPYTMGWYRQEPGKERELVAAITGRVVSTYYADSVKGRFTISRDNAKNTVYLQMNSLQPEDTAVYYCAARIYYYNTRGDYWAQGTQVTVSS | high polyreactivity
QVQLVESGGGLVQAGGSLRLSCAASGRIFGPYVMGWYRQAPGKERELVAAISTSGTSTYYADSVKGRFTISRDNAKNTVYLQMNSLKPEDTAVYDCGIRSGARHRLMDYWGQGTQVTVSS | low polyreactivity
QVQLVESGGGLVQAGGSLRLSCAASGRIFGQNAMGWYRQAPGKERELVAAITGSGGRTYYADSVKGRFTISRDNAKNTVYLQMNSQKPEDTAVYYCAVRVTSYYRTMDYWGQGTQVTVSS | low polyreactivity
QVQLVESGGGLVQAGGSLRLSCAASGRIFGQYAMAWYRHAPGKERELVAAITQRGGSTYYADSVKGRFTISRDNAKNTVYLQMNSLKPEDTAGYYCNKRYRFTGIRDPFDYWGQGTQVTVSS | low polyreactivity
QVQLVESGGGLVQAGGSLRLSCAASGRIFGQYAMGWYRQAPGKERELVAAISWRGGTTYYADSVKGRFTISRDNAKNTVYLQMNSLKPEDTAVYYCNADVWVYPYDYWGQGTQVTVSS | low polyreactivity
QVQLVESGGGLVQAGGSLRLSCAASGRIFGRNAMAWYRQAPGKERELVAAISTSGGTYYADSVKGRFTISRDNAKNTVYLQMISLKPEDTAVYYCNDRGRTQQRWVDYWGQRTQVTVSS | high polyreactivity
QVQLVESGGGLVQAGGSLRLSCAASGRIFGRNAMGWYRQAPGKERELVAAITYSGGRTYYADSVKGRFTISRDNAKNTVYLQMNSLKPEDTAVYYCAAYSFAYRYNYWGQGTQVTVSS | high polyreactivity
QVQLVESGGGLVQAGGSLRLSCAASGRIFGRNTMGWYRQAPGKEREFVAAITWSGGSTYYADSVKGRFTISRDNAKNTVYLQMNSLKPEDTAVYYCAAPSYYRYDYWGQGTQVTVSS | high polyreactivity
QVQLVESGGGLVQAGGSLRLSCAASGRIFGRYAMGWYRQAPGKERELVAAITSGGRTSYADSVKGRFTISRDNAKNTVYLQMNSLKPEDTSVYYCNVVSRNSIRFDYWGQGTQVTVSS | high polyreactivity
QVQLVESGGGLVQAGGSLRLSCAASGRIFGRYAMGWYRQAPGKERELVAAITSSGRTYYADSVKGRFTISRDNAKNTVYLQMNSLKPEDTAVYYCNAVARYTKYNYWGQGTQVTVSS | high polyreactivity
QVQLVESGGGLVQAGGSLRLSCAASGRIFGRYAMGWYRQAPGKERELVASITYRGGGTYYADSVKGRFTISRDNAKNTVYLQMNSLKAEDTAVYYCAAALSNVRNVRSPYDYWGQGTQVTVSS | high polyreactivity
QVQLVESGGGLVQAGGSLRLSCAASGRIFGRYVMGWYRQAPGKERELVAAITSGGSTYYADSVKGRFTISRDNAKNTVYLQMNSLKPEDTAVYYCATRLFYPRFYYWGQGTQVTVSS | high polyreactivity
QVQLVESGGGLVQAGGSLRLSCAASGRIFGRYVMGWYRQAPGKERELVAVITGGGTRTYYADSVKGRFTISRDNAKNTVYLQMNSLKPEDTAVYYCAAPYRPDVDYWGQGTQVTVSS | high polyreactivity
QVQLVESGGGLVQAGGSLRLSCAASGRIFGSNTLGWYRQAPGKEREMVAAISRRGGSTYYADSVKGRFTISRDNAKNTVYLQINSLKPEDTAVYYCAAVGTGSSLRYDYWGQGTQVTVSS | high polyreactivity

Sequence | polyreactivity (PSR sort gate)
QVQLVESGGGLVQAGGSLRLSCAASGRIFGSYAMGWYRQAPGKEREFVAAISVGSGSTYYADSVKGRFTISRDNAKNTVYLQMNSLKPEDTAVYYCAAENLYIDPRDWYGTWDTGYYWGQGTQVTVSS | high polyreactivity
QVQLVESGGGLVQAGGSLRLSCAASGRIFGSYAMGWYRQAPGKERELVAAINWRGGSTFYADSVKGRFTISRDNAKNTVYLQMNSLKPEDTAVYSCARRGYRQSGDYWGQGTQVTVSS | low polyreactivity
QVQLVESGGGLVQAGGSLRLSCAASGRIFGSYAMGWYRQAPGKERELVAAISGDGDSTYYADSVKGRFTISRDNAKNTVYFQMNSLKPEDTAVYYCAAEPNVYFSVFVLFPSDYWGQGTQVTVSS | low polyreactivity
QVQLVESGGGLVQAGGSLRLSCAASGRIFGSYVMGWYRQAPGKERELVAAISFSGDTTYYADSVKGRFTISRDNAKNTVYLQMNSLKPEDTAVYYCAAEFPQGYYAFKYDYWGQGTQVTVSS | high polyreactivity
QVQLVESGGGLVQAGGSLRLSCAASGRIFGTNAMGWYRQAPGKEREMVATITRGGGNTYYADSVKGRFTISRDNAKNTVYLQMNSLKPEDTAVYYCAAKFHRFAWFSHYDYWGQGTQVTVSS | low polyreactivity
QVQLVESGGGLVQAGGSLRLSCAASGRIFGTYAMGWYRQAPGKERELGAAITQSGGRTYYADSVKGRFTISRDNAKKTDYLQMKSLKPEDTAVYYCNKVTYRGIGLGYDYWGQGTQVTVSS | high polyreactivity
QVQLVESGGGLVQAGGSLRLSCAASGRIFGTYAMGWYRQAPGKERELVAVITRGGGTKYADSVKGRFTISRDNAKNTVYLQMNSLKPEDTAVYYCAARGRYYGYNYWGQGTQVTVSS | high polyreactivity
QVQLVESGGGLVQAGGSLRLSCAASGRIFGTYGMGWYRPAPGKERELVAAISGGGSTNYADSVKGRFTISRDNAKNTVYLQMNSLKPEDTAVYYCATRWYRFYPSDYWGQGTQVTVSS | low polyreactivity
QVQLVESGGGLVQAGGSLRLSCAASGRIFGTYTMGWYRQAPGKERELVASIRFGGSTYYADSVKGRFTISRDNAKNSVYLQMNSLKPEDTAVYYCNRVYGYNRRYGYWGQGTQVTVSS | high polyreactivity
QVQLVESGGGLVQAGGSLRLSCAASGRIFGVNAMGWYRQAPGKERELVAAISRSGGSTYYADSVKGRFTISRDNAKNTVYLQMNSLKPEDTAVYYCAAVVKYRYSAYGGDYWRQGTQVTVSS | high polyreactivity
QVQLVESGGGLVQAGGSLRLSCAASGRIFGVNAMGWYRQAPGKERELVAAISWSGGSTYYADSVKGRFTISRDNAKNTVYLQMNSLKPEDTAVYYCAADIWFYTYYLGQGTQVTVSS | high polyreactivity
QVQLVESGGGLVQAGGSLRLSCAASGRIFGVYAMGWYRQAPGKERELVAAIRGDGSTNYADSVKGRFTISRDNAKNTVYLQMNSLKPEDTAVYYCATDLGIYSGSPWGYYYWGQGTQVTVSS | low polyreactivity
QVQLVESGGGLVQAGGSLRLSCAASGRIFGVYAMGWYRQAPGKERELVAAISFSGGRTYYADSVKGRFTISRDNAKNTVYLQMNSLKPEDTAVYYCSALGPYDWLWAGDYWGQGTQVTVSS | low polyreactivity
QVQLVESGGGLVQAGGSLRLSCAASGRIFGVYAMGWYRQAPGKERELVAAISGSTTLTYYADSVKGRFTISRDTAKNTVDLQMNSLKPEDTAVYYCAARSYTPSYKMDYWGQGTKVTVSS | high polyreactivity
QVQLVESGGGLVQAGGSLRLSCAASGRIFGVYAMGWYRQAPGKERELVAAITARGGSTYYADSVKGRFTISRDNAKNTVYLQMNSLKPEDTAVYYCATRLYKRTRTITYGYWGQGTQVTVSS | high polyreactivity
QVQLVESGGGLVQAGGSLRLSCAASGRIFGVYTMGWSRQAPGKERELVAAITSGGNTNYADSVKGRFTISRDNAKNNVYLQMNSLKPEDTAVYYCAARSVRNFYYPGHNYRGQGTQVTVSS | low polyreactivity
QVQLVESGGGLVQAGGSLRLSCAASGRIFGWYAMGWYRQAPGKERELVAAIDGGDDSTYYADSVKGRFTISRDNAKNTVYLQMNSLKPEDTAVYYCAVVGYNWGQGSQVTVSS | low polyreactivity
QVQLVESGGGLVQAGGSLRLSCAASGRIFGWYAMGWYRQAPGKERELVAAITSGSRTSYADSVKGRFTISRDNAKNTVYLQMNSLKPVDTAVYYCNRVSHLDYYWGQGTQVTVSS | high polyreactivity
QVQLVESGGGLVQAGGSLRLSCAASGRIFGWYAMGWYRQAPGKERELVAAITWSGTSTYYAYSVKGRFTISRDNAKNTVYLQMNSLKPEDTAVYYCAAEPGWTMDYWGQGTQVTVSS | low polyreactivity
QVQLVESGGGLVQAGGSLRLSCAASGRIFGWYAMGWYRQAPGKERELVADIRYRGGSTYYADSVKGRFTISRDNAKNTVYLQMHSLKPEDTAVYYCAALGFVPVPYDYWGQGTQVNVSS | low polyreactivity
QVQLVESGGGLVQAGGSLRLSCAASGRIFGWYAMGWYRQAPGKEWELVAAITSGSRTSYADSVKGRFTISRDNAKNTDYLQMNSLNPEDTAVYYCARRSYGIYYRSADDSWGQGTQVTGSS | high polyreactivity
